From the nanobody polyreactivity screen of Harvey et al. (2022)

Assay: yeast display, Sf9 membrane polyspecificity reagent, FACS + sequencing; frameworks hold sequencing errors
How it was run: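 Nanobodies came from a synthetic yeast display library in Saccharomyces cerevisiae BJ5465, induced with galactose for 36–48 hours and stained for 1 hour at 4 °C with 10% biotinylated, detergent-solubilized Sf9 membrane reagent. Cells were enriched on streptavidin microbeads and then FACS-sorted, with low and high (top ~1%) gates set on anti-HA fluorescence for expression and streptavidin fluorescence for reagent binding. Each polyreactivity label reflects the gate a clone came from. Genes were amplified by colony PCR, sequenced by MiSeq 2 × 250 and filtered by CDR length.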

Row | Sequence | polyreactivity (PSR sort gate)
1 | QVQLVESGGGLVQAGGSLRLSCAASGSIFSVYAMGWYRQAPGTERELVAGITRNGGTTYYADSVKGRFTISRDNAKHTVYLQMNSLKPEDTAVYYCAADNGFPEYGVNRVWSRYDYWGQGTQVTVSS | low polyreactivity
2 | QVQLVESGGGLVQAGGSLRLSCAASGSIFSVYVMGWYRQAPGKERELVAAISWSDSDTYYADSVKGRFTISRDNAKNTVYLQMNSLKPEDTAVYYCAAETFDYADYIANGSGEYDYWGQGTQGTVSS | high polyreactivity
3 | QVQLVESGGGLVQAGGSLRLSCAASGSIFSWNAMGWYRQAPGKERELVAAITSGGSTYYADSVKGRFTISRDNAKNTVYLQMNSLKPEDTAVYYCGWTYHYHRESWGQGTQVTVSS | low polyreactivity
4 | QVQLVESGGGLVQAGGSLRLSCAASGSIFSWNARGCYRQAPGKERELVAGITWSGGGTSYADSVKGRFTISRDNAKNTVYLQMNSLKPEDTAVYYCAKEWIFDFNYWGQGTQVTVSS | low polyreactivity
5 | QVQLVESGGGLVQAGGSLRLSCAASGSIFSWYAMGWYRQAPGKERELVAAITSDGGTNYADSVKGRFTISRDNAKNTVYLQMNRLKPEDTAVYYCAADYWYSWRRSHYAHRYGYWGQGTQVTVSS | low polyreactivity
6 | QVQLVESGGGLVQAGGSLRLSCAASGSIFSYNAMGWYRQAHGKERELVAAIRASGGSTYYADSVKGRFTISRDNAKNTVYLQMNSLKPEDTAVYYCAARGYGWGQGTQVTVSS | high polyreactivity
7 | QVQLVESGGGLVQAGGSLRLSCAASGSIFSYNAMGWYRQAPGKERELVAAIRASGGDTYYADSVKGRFTISRDNAKNTVYLQMNSLKPEDTAVYYCAARTYAHHYASHGYWGQGTQVTVSS | low polyreactivity
8 | QVQLVESGGGLVQAGGSLRLSCAASGSIFSYNAMGWYRQAPGKERELVAAISRNGGRTYYADSVKGRFTISRDNAKNTVYLQMNSLKPEDTAVYYCNNAGYRAGTGSYDYWGQGTQVTVSS | high polyreactivity
9 | QVQLVESGGGLVQAGGSLRLSCAASGSIFSYNAMGWYRQAPGKERELVAAISSGDYTYYADSVKGRFTISRDNAKNTVYLQMNSLKPEDTAVYYCAAPYVYSRGLSGDYYWGQGTQVTVSS | high polyreactivity
10 | QVQLVESGGGLVQAGGSLRLSCAASGSIFSYYAMGCYRQAPGKERQLVASISWIGTSTYYADSVKGRFTISRDNAKNTFYLQINSLKPEDTAVYYCNADWTYYGFGTRLDYWGQGTQVTVSS | low polyreactivity
11 | QVQLVESGGGLVQAGGSLRLSCAASGSIFSYYAMGGYRQAPGKARELVASISWNGTSTYYADSVKGRFTISRDNAKNTVYLQMNSLKPEDTAVYYCNVRFNYRGTYDYWGQGTQVTVSS | low polyreactivity
12 | QVQLVESGGGLVQAGGSLRLSCAASGSIFSYYAMGWDRQAPGKERELVASISWNGTSTYYADSVKGRFTISRDNAKNTVYLQMNSLKPEDTAVYYCNGRFIYRGTYDYWGQGTQVTVSS | low polyreactivity
13 | QVQLVESGGGLVQAGGSLRLSCAASGSIFSYYAMGWYRQAPGKEREFVAAITKSGGSTYYADSVKGRFTISRDNAKNTVYLQMNSLKPEDTAVYYCAVRYKLYYYRYDYWGQGTQVTVSS | low polyreactivity
14 | QVQLVESGGGLVQAGGSLRLSCAASGSIFSYYAMGWYRQAPGKERELVAAINWSGGRTYYADSVKGRFTISRDNAKNTVYLQMNSLKPEDTAVYYCNAVSNFWFIVFYGNQPKTDDYWGQGTQVTVSS | high polyreactivity
15 | QVQLVESGGGLVQAGGSLRLSCAASGSIFSYYAMGWYRQAPGKERELVAAIRWRTGNTYYADSVKGRFTISRDNAMNTVYLQMNSLKPEDTAVYYCNAVYRYNYGYREYEYWGQGTQVTVSS | high polyreactivity
16 | QVQLVESGGGLVQAGGSLRLSCAASGSIFSYYAMGWYRQAPGKERELVAAITVRGGSTYYADSVKGRFTISRDNAKNTVYLQMNSLKPEDTGVYYCAADWLDESFSYGPYYYWGQGTQVTVSS | low polyreactivity
17 | QVQLVESGGGLVQAGGSLRLSCAASGSIFSYYTMGWYRQAPGQERELVAAISRRGGRTYYADSVKGRFTISRDNAKNTVYLQMNSLKPEDTAVYYCAAEWAGWNNEMDYWGQVTQVTVSS | high polyreactivity
18 | QVQLVESGGGLVQAGGSLRLSCAASGSIFTADAMGWYRQAPGKERELVAAISRSGGRTYYADSVKGRFTISRDNAKNTDYLQMNSLKPEDTAVYYCAAAFASQYRVVKYYYWGQGTQVTVSS | high polyreactivity
19 | QVQLVESGGGLVQAGGSLRLSCAASGSIFTAYTMGWYRQAPGKERELVAAITERGGSTYYADSVKGRFTISRDNAKNTVYLQMNSLKPEDTAVYYCNAVWYFKPPPLYYIPYRQYDYWGQGTQVTVSS | low polyreactivity
20 | QVQLVESGGGLVQAGGSLRLSCAASGSIFTDNAMGRYRQAPGKERELVAAITSNGGSTYYADSVKGRFTISRDNAKNTVYLQMNSLKPEDTAVYYCAADSLYREDDYWGQGTQVTVSS | low polyreactivity
21 | QVQLVESGGGLVQAGGSLRLSCAASGSIFTEKAMGWYRQAPGKERELVATITITGSTNYADSVKGRFTISRDNAKNTVYLQLNSLKPEETAVYYCNADLYIAFSASAYDYWGQGTQVTVSS | low polyreactivity
22 | QVQLVESGGGLVQAGGSLRLSCAASGSIFTENAMGWYRQAPGKERELVATITITGSTNYADSVKGRFTISRDNAKNTVYLQMNSLKPEDTAVYYCNADLYIAFSASAYDYWGQGTQVTVSS | low polyreactivity

Row | Sequence | polyreactivity (PSR sort gate)
23 | QVQLVESGGGLVQAGGSLRLSCAASGSIFTENAMGWYRQPPGKERELVATITITGSTNYADSVKGRFTISRDNAKKTVYLQMNSLKPADTAVYYCNADLYIAFSASAYDYWGQGTQVTVSS | low polyreactivity
24 | QVQLVESGGGLVQAGGSLRLSCAASGSIFTEYAMGWYRQAPGKERELVAAISWSGATTYYADSVKGRFTISRDNAKNTVYLQMNSLKPEDTAVYYCAARWANRSYEYWGQGTQVTVSS | low polyreactivity
25 | QVQLVESGGGLVQAGGSLRLSCAASGSIFTEYAMGWYRQAPGKERELVADINSGDITYYADSVKGRFTISRDNAKNTVYLQMNSLKPEDTAVYYCATGWYYTSSTYRSSDFDYWGQGTQVTVSS | low polyreactivity
26 | QVQLVESGGGLVQAGGSLRLSCAASGSIFTFYAMGLYRQAPGKERELVAAISYRGGSTYYADSVKGRFTISRDNAKNTVYLQINSLKPEDTAVYYCAAARFPVFIQGYRMEYWGQGTQVTVSS | low polyreactivity
27 | QVQLVESGGGLVQAGGSLRLSCAASGSIFTFYAMGWYRQAPGKERELVAAISYRGGSTYYADSVKGRFTISRDNAKNTVYLQMNSLKPEDTAVYYCAAARFPVFIQGYRMEYWGQGTQVTVSS | low polyreactivity
28 | QVQLVESGGGLVQAGGSLRLSCAASGSIFTFYAMGWYRQAPGKERELVATITISTGSTYYADSVKGRFTISRDNAKNTVYFQMNSLKPEDTAVYYCNAYISRRGKRGYNYWGQGTQVTVSS | high polyreactivity
29 | QVQLVESGGGLVQAGGSLRLSCAASGSIFTGNAMGWYREAPGKERELVAAITNGGITNYADSVKRRFTISRDNAMNTVYLQMNSLKPEDTAVYYCAADYVDFYSFRRFDYWGQGTQVTVSS | low polyreactivity
30 | QVQLVESGGGLVQAGGSLRLSCAASGSIFTGNTMGSDRQAPGKERELVAAISRSGGSTYYADSVKGRFTISRDNAKNTVYLQMNSLKPEDTAVYYCAAYRTHGPPRAIRFDYWGQGTQVTVSS | high polyreactivity
31 | QVQLVESGGGLVQAGGSLRLSCAASGSIFTGYAMGWYRQAPGKERELVAAISNSGTSTYYADSVKGRFTISRDNAKNTVYLQMNSLKPEDTAVYYCNTVGHRWLSDDDYWGQGTQVTVSS | low polyreactivity
32 | QVQLVESGGGLVQAGGSLRLSCAASGSIFTGYAMGWYRQAPGKERELVARITKRGGSTYYADSVKGRFTISRDNAKNTVYLQMNSLKPEDTAVYYCNADRKFPYGSYETHDYWGQGTQVTVSS | high polyreactivity
33 | QVQLVESGGGLVQAGGSLRLSCAASGSIFTHYAMGWYRPAPGKERELVATISNGDGSTYYADSVKGRFTISRDNAKNTVYLQMNSLKPEDTAVYYCNVDDFSQYADDSWGYEYWGQGTQVTVSS | low polyreactivity
34 | QVQLVESGGGLVQAGGSLRLSCAASGSIFTINAMGWYRQAPGKVRELVAAISWSGAPTYYADSVKGRFTISRDNAKNTVYLQMNSLTPEDTAVYYCATGYNYLDRNTGYVHRFDYWGQGTQVTVSS | low polyreactivity
35 | QVQLVESGGGLVQAGGSLRLSCAASGSIFTIYAMGWYRQAPGKERELVAAISFSGGSTYYADSVKGRFTISRDNAKNSVYLQMNSLKPEDTAVYYCAADGGFTYDYWGQGTQVTVSS | low polyreactivity
36 | QVQLVESGGGLVQAGGSLRLSCAASGSIFTIYAMGWYRQAPGKERELVAAITRSGGSTSYADSVKGRFTISRDNAKNTVYLQMNSLKPEDTAVYYCNKDLNFAKYISSILYDYWGQGTQVTVSS | low polyreactivity
37 | QVQLVESGGGLVQAGGSLRLSCAASGSIFTIYAMGWYRQAPGKERELVATITGGGGSTYYADSVKGRFTISRDNAKNTVYLQMNSLKPEDTAVYDCAADSPGWTYTSRSYDYWGQGTQVTVSS | low polyreactivity
38 | QVQLVESGGGLVQAGGSLRLSCAASGSIFTKYAMGWYRQAPGKERELVAAISWSGVSTYYADSVKGRFTISRDNAKHTVYLQMNSLKPEDTAVYYCNTRRYRSYGTTRYGYWGQGTQLTVSS | high polyreactivity
39 | QVQLVESGGGLVQAGGSLRLSCAASGSIFTKYAMGWYRQAPGKERELVAGISRTTGSTYYADSVKGRFTISRDNAKNTVYLQMNSLKPEDTAVYYCAALSYRRGISRDGGYDYWGQGTQVTVSS | high polyreactivity
40 | QVQLVESGGGLVQAGGSLRLSCAASGSIFTLNAMGWYRQATGKEREFVAAITLRSGSTYYADSVKGRFTISRDNAKNTVYLQMNSLKPEDTAVYYCAARRTRYIYYYWGQGTQVTVSS | high polyreactivity
41 | QVQLVESGGGLVQAGGSLRLSCAASGSIFTLYAMGWYIQAPGKEREFVAGMSFSTGRTYYADSVKGRFTISRDNAKNTVYLQMHSLTPEDTAGYYCAAYVSHYWYGLYRDGYWGQGTQATVSS | low polyreactivity
42 | QVQLVESGGGLVQAGGSLRLSCAASGSIFTLYDMGWYRQAPGKERELVAAITSGGSTDYADSVKGRFTISRDNAKNTVYFQMNSLKPEDTAVYYCNAEAYPYWYRGASREYDYWGQGTQVTVSS | low polyreactivity
43 | QVQLVESGGGLVQAGGSLRLSCAASGSIFTLYDMGWYRQAPGKERELVAAITSGGSTDYADTVKGRFTISRDNAKNTVYLQMNSLKPEDTAVYYCNAESFTYWYRGASREYDYWGQGTQVTVSS | low polyreactivity
